The subject of experiment [1] is advanced, treatment-refractory NSCLC. The conditions noted are these: patients with advanced; cited from earlier work.
The test system of the next experiment is carcinoma cells. The conditions noted are these: cited from earlier work.
A further experiment deals with pancreatic cancer. The conditions noted are these: in combination with gemcitabine; cited from earlier work.
In experiment [2] the test system is H1650 cells. The experiment in a line: qPCR of EMT gene changes in response to ligand treatment. Format: cell-based, human. The conditions noted are these: 7 days ligand, qPCR normalized to GAPDH and untreated control. Here is the method: (§1) The human cell line, H1650 was cultured in […] containing 10% FBS, 2 mM L-Glutamine, and 1 mM sodium pyruvate, at 37° C., 5% CO2. Growth factor and cytokine induced EMT was monitored over 7 days. Growth factor and cytokines were obtained from commercial sources and used as follows: HGF (Hepatocyte growth factor) at 100 ng/ml, EGF (Epidermal Growth Factor) at 100 ng/ml, OSM (Oncostatin M) at 100 ng/ml, TGFβ1 (Transforming growth factor, beta 1) at 10 ng/ml, and TNFα (Tumor necrosis factor alpha) at 25 ng/ml.
Cells were plated and treated with ligand for 7 days. At the time of harvest, cells were trypsinized and snap frozen for later use. Total RNA was isolated using RNAqueous-4 PCR Kit (Ambion, AM1914). Samples were DNase treated using the Turbo DNA-Free kit (Ambion, AM1907) and reverse transcribed using Superscript III (Invitrogen, 18080-044) for qPCR analysis. Taqman primers and Locked-Nucleic Acid probes were designed using ProbeFinder software (Universal Probe library, Roche). For mRNA analysis, real time PCR was performed using the ABI 7900HT series PCR machine. Thermocycle conditions were as follows: 50° C. for 2 minutes, 95° C. for 10 minutes, 95° C. for 15 seconds, 50° C. for 10 seconds, 60° C. for 1 minute. Data was collected over 45 cycles and then normalized to GAPDH and further normalized to the untreated control sample.
On the technique in general: Real-time PCR tracks product formation cycle by cycle.

Experiment [3] concerns H1650 cells. Description: Induction of EMT by growth factors and cytokines in 2D culture (immunoblot, morphology, confocal). Format: cell-based, human. The conditions noted are these: H1650 2D; 7 days; HGF, EGF, OSM 100 ng/ml, TGFβ1 10 ng/ml, TNFα 25 ng/ml. The procedure:
as §1
Cells were harvested by washing once with PBS, and lysing on ice for 10 minutes with scraping (using a Cell Lifter, Corning Inc. #3008) in ice cold RIPA buffer (Sigma R0278) containing Protease inhibitor (Sigma P8340), Phosphatase inhibitors (Sigma P2850, P5726) and 200 μM Sodium Vanadate. Supernatents were micro-centrifuged at max speed, 4° C. for 10 minutes. Protein content was quantitated using the BCA method (Pierce #23225) and samples were normalized to total protein in Laemli buffer and heated at 100° C. for 10 minutes. SDS PAGE was run using a Bis-Tris gel system (Invitrogen NuPAGE) with MOPS buffer (Invitrogen NP0001), transferred onto nitrocellulose using the iBLOT system (Invitrogen) and blocked in PBS-T (0.1% Tween 20), 5% non-fat milk or BSA in guidance with primary Ab supplier requirements. All primary antibodies were incubated overnight at 4° C. in PBS-T (0.1% Tween 20) in either 5% non-fat milk or BSA, diluted to the following working dilutions: anti E Cadherin (Santa Cruz #sc-21791) 1:500 dilution; anti Vimentin (BD Biosciences #550513) 1:2000 dilution;); 1:1000 dilution; anti β-Actin (Sigma, A5441) 1:10,000 dilution. Secondary HRP labeled antibodies used were: anti Rabbit IgG HRP (Amersham NA934) 1:5000 dilution; anti Mouse IgG HRP (Sigma A2304) 1:2000 dilution. Membranes were visualized using the Supersignal ELISA Femto Maximum Sensitivity Substrate (Pierce).
Cells were fixed in 4% paraformaldehyde (Electron Microscopy Sciences #15710)/PBS (Gibco#14190) for 10 minutes at room temperature, washed with PBS and permeabilized with 0.1% Triton X100 (Sigma P1379) in PBS for 10 minutes at room temp. Cells were blocked with 3% BSA/PBS for at least 15 minutes then incubated with primary antibody diluted in blocking buffer for a minimum of two hours at room temperature. Anti E-Cadherin was used at a 1:75 dilution and anti Vimentin (Millipore #AB5733) was used at a 1:2000 dilution. Cells were washed, incubated with fluorescently-labeled secondary antibodies for one hour, followed by a 5 minute TO-PRO3 nuclear counterstain (Invitrogen #T3605) at room temperature, washed and mounted on slides with Pro-Long Gold anti-fade reagent (Invitrogen #P36934). Secondary fluorescent antibodies used were: anti mouse 488 nm (Invitrogen #A11029) 1:600 dilution; anti chicken TRITC (Chemicon #AP194R) 1:50 dilution. Stained cells were captured on a Leica DMRXE microscope/SP2 scanner using Leica Confocal Software (LCS).
The ability of cell lines to undergo epithelial to mesenchymal transition (EMT) was investigated using different extracellular ligand drivers. A panel of NSCLC, pancreatic, and breast cancer cell lines were screened by treatment of cells for 7 days in presence of respective ligands, either singly or in combination. Initial screening determined the ability of the ligand to cause morphology change, to down-regulate the epithelial marker, E-cadherin or to up-regulate a mesenchymal marker such as vimentin. Potential EMT cell models should up-regulate a mesenchymal marker and display morphology change. More robust models would show a down-regulation of E-cadherin expression.
(In general: Immunoblotting shows a protein as a band on a membrane.)

For experiment [4], the system named is H1650 cells. The experiment in a line: Doubling time of ligand-treated H1650 cells. Format: cell-based, human. The conditions noted are these: 7 days ligand, doubling time over following two weeks, versus untreated. The procedure: as §1
Cells were plated and treated with ligand for 7 days. On day 7, cells were counted and re-plated on 6 cm cell culture dishes. On days 3, 5, 7, 10 and 12, cells were trypsinized and counted to determine the total number of cells in the dish, in duplicate. Doubling time was calculated using the multiple time point method on the website www.doubling-time.com.

Data on two molecules can be found in patent US8465912B2, “Methods for the identification of agents that inhibit mesenchymal-like tumor cells or their formation” (OSI Pharmaceuticals, LLC, priority 2009, dated 2013).

Consider `C#Cc1cccc(Nc2ncnc3cc(OCCOC)c(OCCOC)cc23)c1` [erlotinib, [6,7-bis(2-methoxyethoxy)-4-quinazolin-4-yl]-(3-ethynylphenyl) amine], for which the “Clinical outcome, phase III monotherapy” value in experiment [1] was “significantly prolonged survival, delayed disease progression and delayed worsening of lung cancer-related symptoms”. The “Cellular sensitivity after EMT-like transition” value in the experiment with carcinoma cells is reported as “cellular insensitivity”. Besides, the “Survival, phase III first-line” value in the experiment with pancreatic cancer is given as “improves survival”.

B1: OSM: Oncostatin M, commercial cytokine used at 100 ng/ml (protein, UniProt P13725 26-221, looked up)
Oncostatin-M: AAIGSCSKEYRVLLGQLQKQTDLMQDTSRLLDPYIRIQGLDVPKLREHCRERPGAFPSEETLRGLGRRGFLQTLNATLGCVLHRLADLEQRLPKAQDLERSGLNIEDLEKLQMARPNILGLRNNIYCMAQLLDNSDTAEPTKAGRGASQPPTPTPASDAFQRKLEGCRFLHGYHRFMHSVGRVFSKWGESPNRSRR
As for B1, in the experiment on H1650 cells [2], the ACTN1 gene change entry is on record as “NC (Fold changes less than 3 are reported as NC)”, the CDH1 gene change result is given as “NC (Fold changes less than 3 are reported as NC)”, the CDH2 gene change entry is “NC (Fold changes less than 3 are reported as NC)” and the CLDN3 gene change entry is “NC (Fold changes less than 3 are reported as NC)”. Besides, in the experiment on H1650 cells [2], the ERBB3 gene change result is recorded as “NC (Fold changes less than 3 are reported as NC)”, the ITGB3 gene change came to 13.25 fold change, the MTA3 gene change result is reported as “NC (Fold changes less than 3 are reported as NC)” and the OCLN gene change result is on record as “NC (Fold changes less than 3 are reported as NC)”. For the same molecule, in the experiment with H1650 cells [2], the PLAUR gene change result was “NC (Fold changes less than 3 are reported as NC)”, the SNAI1 gene change entry is on record as “NC (Fold changes less than 3 are reported as NC)”, the SNAI2 gene change is 3.44 fold change and the SPARC gene change entry is listed as “NC (Fold changes less than 3 are reported as NC)”. Besides, in the experiment on H1650 cells [2], the TJP3 gene change result is given as “NC (Fold changes less than 3 are reported as NC)”, the TWIST1 gene change entry is listed as “NC (Fold changes less than 3 are reported as NC)”, the VCAN gene change came to 3.88 fold change and the VIM gene change was found to be 4.18 fold change. Further, in the experiment with H1650 cells [2], the ZEB1 gene change was 3.15 fold change and the ZEB2 gene change stood at 4.43 fold change. For the same molecule, the “Induction of EMT (E-cadherin, vimentin, morphology)” value in the experiment with H1650 cells [3] is given as “do not stimulate EMT by themselves”. In the experiment with H1650 cells [4], the “Change in doubling time” value is on record as “modest decrease”.
